Test results reported in the DeepSol protein solubility set.

Assay: soluble on expression in E. coli; label from the status in PepcDB or PDB records

Row | Sequence | soluble on expression in E. coli
1 | GHMNVKLKVFHAGSLTEPMKAFKRAFEEKHPNVEVQTEAAGSAATIRKVTELGRKADVIATADYTLIQKMMYPEFANWTIMFAKNQIVLAYRNDSRYADEINSQNWYEILKRPDVRFGFSNPNDDPCGYRSLMAIQLAELYYNDPTIFDELVAKNSNLRFSEDNGSYVLRMPSSERIEINKSKIMIRSMEMELIHLVESGELDYFFIYKSVAKQHGFNFVELPVEIDLSSPDYAELYSKVKVVLANGKEVTGKPIVYGITIPKNAENRELAVEFVKLVISEEGQEILRELGQEPLVPPRADTAVPSLKAMVEVS | soluble
2 | MGSDKIHHHHHHMADDQEKLLIDEEETVQIKDLNKVTTVNDTDLLLLDDGAASSNAITFKNFLDASKDKIFKGEGLDYFKQIIKSTIAEELAADKDFVEKIYAKITDKLINNDSTNISNLFSKIKSRLTDSISSATLSRSDHLLIMPSSDTIQKTPVPKHILGVPSNLAYGSITRSTTLYPSDYENNAIFINMEDNDDVTLIFSKSYDNSPVYLDIEIQVKINDNRMQKKSLKLQYSDETTYNRVYEIAGPRGLFTRIPIYKGWYVQKRASLYGDPVPDLLKL | not soluble
3 | MIGAQVDMHFTKGYPSVDLSDPWNKNVLLEVVRMAIPLMKHPNYYRINGKPAIFIWNEAIFYNRAEAYREIKEMVKRDLGVEPYIIADVLPRIMADRKVIPGTPEGEWYIRNLLLRKNDGGDKFIDAYTSWIGFYSVQGETALTPREIEMYSKLYREHVEAWSSYTNGRNKCFIPTVSPGFDRTFDKSFNQQFPIPRDPKRFAEMLKIALDSLGNCKEIRIDTWNDFYEGTFIEPSVSDGFTYLEVLEEFIKELKENLEHHHHHH | not soluble
4 | MGSSHHHHHHSSGLVPRGSHMAEQVLPQALYLSNMRKAVKIRERTPEDIFKPTNGIIHHFKTMHRYTLEMFRTCQFCPQFREIIHKALIDRNIQATLESQKKLNWCREVRKLVALKTNGDGNCLMHATSQYMWGVQDTDLVLRKALFSTLKETDTRNFKFRWQLESLKSQEFVETGLCYDTRNWNDEWDNLIKMASTDTPMARSGLQYNSLEEIHIFVLCNILRRPIIVISDKMLRSLESGSNFAPLKVGGIYLPLHWPAQECYRYPIVLGYDSHHFVPLVTLKDSGPEIRAVPLVNRDRGRFEDLKVHFLTDPENEMKEKLLKEYLMVIEIPVQGWDHGTTHLINAAKLDEANLPKEINLVDDYFELVQHEYKKWQENSEQGRREGHAQ | soluble
5 | MGSDKIHHHHHHMDLDRLQTFLKVVQYGSFQQVAAREYRSQRTVSKQMTQLENELKVTLFDRGQNRIQLTPQGRLFWASAQDIVNNYTTALTELRQFNVPTDQILRVGYFSAFEQRLLLPALYDLKQQHSELQLVVRQGSNEHLAQQVADGSLDLALSINYGRPAVTPESQLTAVPIYHNQMVIGVSRLNPLSRLSQLPPSALATLPILYYSPESSTFLLESFLASAPFIQDYEQIRRVSSAEQMHLLVALNQALAFYPAGLVPTKHDEQVAYLPITDAAQQGYDIVALLKSNRSRPLIAKLVQRLKANAKSDE | not soluble
6 | MGSDKIHHHHHHMPDNANIAASHTQAHGSSYDDKPTQPQCDSIKLNEIGPNLLEPRAIEPSATKPNAIKHESVITKQKQKVIFIGLPRTGTTSVSVALLEQGLKVAHMAFTKEAFMQADAISDAPCFSDFKQLDELFPKAKFVYLDRELDSWVPSMQMLLSRMLPHLDAKIGRFHPIMKRSFRHTFGVGVVENPQDEQHLIDCYQHHKTEVFNYFAGRQDLLSIDVSQQGALGQLLAFMELTSAENHNLSFPKLNVGRNVASWDEYKHPNKISANAAGPEKRKYFDYKV | not soluble
7 | DPSVVLQMAEGPATYEQAPAGAPPANDPQARFVAKVLGETEDTWGAIFTQSLNRNYVPPKLVLFRGATPTACGTGQAAMGPFYCPGDSKVYIDLGFFDEMERRLNAPGDFAQAYVIAHEVGHHVQHLLGVSEQVDRLRQRNPAQANALSVRMELQADCFAGLWARRADQARNILESGDIEEGLNAASAIGDDTLQKKSQGYVVPDAFTHGSSAQRVRWFKRGLESGDLRQCDTF | not soluble
8 | MKNDTAALAADIVDFWKKAGPDKWFDKDAAFDNHFHDRFRDAHFAAARRELDGWLEGAESSLALMLLLDQFPRNCFRGTAHMYATDPLARFFADEAIRRGHDQAVSEDLRVFFYLPFSHAEDIAAQQRACDLNQPLGGLYLHHAEEHRDIVERFGRFPHRNGILLRETTPEERQYLEEGGFSG | soluble
9 | MAKDIEISASESKFILEALRQNYRLDGRSFDQFRDVEITFGKEFGDVSVKMGNTKVHCRISCQIAQPYEDRPFEGLFVISTEISPMAGSQFENGNITGEDEVLCSRIIEKSVRRSGALDVEGLCIVAGSKCWAVRADVHFLDCDGGFIDASCIAVMAGLMHFKKPDITVHGEQIIVHPVNEREPVPLGILHIPICVTFSFFNPQDTEENIKGETNSEISIIDATLKEELLRDGVLTVTLNKNREVVQVSKAGGLPMDALTLMKCCHEAYSIIEKITDQILQLLKEDSEKRNKYAAMLTSENAREI | soluble
10 | MSEQITFATSDFASNPEPRCPCILLLDVSGSMSGRPINELNTGLVTFRDELLADSLALKRVELGIVTFGPVHVEQPFTSAANFFPPILFAQGDTPMGAAITKALDMVEERKREYRANGISYYRPWIFLITDGAPIDEWQAAANKVFRGEEDKRFAFFSIGVQGADMKTLAQISVRQPLPLQGLQFRELFSWLSSSLRSVSRSTPGTEVVLEAPKGWTSV | not soluble
11 | MGHDIDQVAPLLREPANFQLRTNCDPHEDNFGLRAHGPLVRIVGESSTQLGRDFVWQAHGYEVVRRILGDHEHFTTRPQFTQSKSGAHVEAQFVGQISTYDPPEHTRLRKMLTPEFTVRRIRRMEPAIQSLIDDRLDLLEAEGPSADLQGLFADPVGAHALCELLGIPRDDQREFVRRIRRNADLSRGLKARAADSAAFNRYLDNLLARQRADPDDGLLGMIVRDHGDNVTDEELKGLCTALILGGVETVAGMIGFGVLALLDNPGQIELLFESPEKAERVVNELVRYLSPVQAPNPRLAIKDVVIDGQLIKAGDYVLCSILMANRDEALTPDPDVLDANRAAVSDVGFGHGIHYCVGAALARSMLRMAYQTLWRRFPGLRLAVPIEEVKYRSAFVDCPDQVPVTW | soluble
12 | KKILVIGDLIADYYLWGKSERLSPEAPVPVLEVQRESKNLGGAANVANNLISLKAKVFLCGVVGDDLEGEHFISALKARGIDASGILIDKTRCTTLKTRIIAQNQQIARVDKEIKDPLNADLRKKLLDFFTEKIQEIDGVILSDYNKGVLDFELTQAMIALANQHHKLILCDPKGKDYSKYSHASLITPNRTELEHALHLKLDSHANLSKALQILKETYHIAMPLVTLSEQGIAFLEKGELVNCPTIAKEVYDVTGAGDTVIASLTLSLLESMSLKDACEFANAAAAVVVGKMGSALASLEEIALILNQTHPKILSLE | not soluble
13 | MSHINLYSLPTDHKNMIRCRYCEKIYKIDNGSSGFIRHLRCKHPNVLYQMGAISNGKEYNLITKQETLSIDTNNEINLRDDDDFMMMKEFSSNQILVNFLSQLDLPTNDVNRVLGKRHRISPTPTINSSVTPNEEHEPDLKMFNSGDTLQNFLIDIDNHIRQKNQESQEAIGTGEESTSASALDMPSSQKESREPSPNSSMLDETNGGTETGDSSPTPFNPARPFGCVICPCSFPRVKDLTIHVTSVHRTRFRCNTCLAEFVQPQHLEHHYSISHAGTSTGTVVNT | not soluble
14 | DGTLVVDIDGCISHANPAAETLLAGPEESLVGQQVEAVIPTWDSLTVDDEQADWSELALSVDGQQRFVELEVTPFADRF | not soluble
15 | ALTEEILNAQPNPICVKDRNLHYIAVNKAFSAIHDLAPDAMLGRSASDLVETELAEHFERSDRHVLETGTPYSEAEHIVRADGSDLWVVTRKYRVGLPDRHFVVTCMNDVT | not soluble
16 | MEGTLSFVSGFAPAVYRRELFRHRCVTTAPEARAWPRLGLLRANSGARLSRVDITPEIYKRLVSMAKRTEGNFSAVAGAILESYLTAATNRDLRAVIFDMDGVLCDSERLSRAAGVEYFRRYHGVWPTEKDFADFAGTGEAAFLSGVARRYSVKDFDVNKAKEGFFNIYVNEYVSALEPFEGVREFIQQIKTMGLKTALASSADAIKVHANLSAIGFERDMFDFVTRSDEIANKKPAPDIFLAAAEGLGVPPESCVVIEDAPAGVLAAKRARMRCVAVATSVSAQLLWDAGADIVRPAPQYIMLDDIVITDDADASAPASASQE | soluble
